The source of these data is patent EP4552657A1, “RADIOPHARMACEUTICAL COMPLEXES AND COMBINATIONS” (priority 2023, dated 2025).

Series [1] deals with Huh-7 hepatoma expressing GPC3. In words: In vivo efficacy in Huh-7 xenograft. Also noted: species or system Mice. The source says: • Figure 1. […] Size-exclusion UV chromatogram of Codrituzumab-macropa. • Figure 9. […] Size-exclusion UV chromatogram of Labetuzumab-macropa. • Figure 18. […] Internalization of Labetuzumab. […] Size-exclusion UV chromatogram of Sacituzumab-macropa. • Figure 25. […] Size-exclusion UV chromatogram of Indusatumab-macropa. • Figure 30. […] Size-exclusion UV chromatogram of Telisotuzumab-macropa. • Figure 36.

In series [2] the test system is HepG2 and Hep3B2.1-7 cells. To be noted: 2 MBq/mg, 5 kBq/ml; 6 days; vs radiolabeled isotype control.
Protocol: Cells were seeded at an appropriate cell density in relevant cell media. One day after seeding, the radiolabeled compounds at the specific activity of 2-20 kBq/µg and radioactive concentration of 50-100 kBq/ml were titrated in parallel with a radiolabeled isotype control. Cells were incubated for 5-6 days. Cell viability was determined by cell counting using Hoechst and PI staining and analyzed on Operetta CLS High Content Analysis System (Perkin Elmer) or by ATP measurements using CellTiterGlo (Promega).
HepG2 and Hep3B2.1-7 cells were seeded at an appropriate cell density in the cell media MEM + 10% FBS. HepG2 cells have higher GPC3 expression on the cell surface than Hep3B2.1-7 cells. One day after seeding the compounds at the specific activity of 2 MBq/mg and radioactive concentration of 5 kBq/ml were titrated in parallel with a radiolabeled isotype control. Cells were incubated for 6 days and subsequentially cell viability was determined using Hoechst and PI staining and analyzed on Operetta CLS High Content Analysis System (Perkin Elmer).
In series [3] the test system is GPC3 low-expressing hepatoma xenograft model Huh-7. To be noted: 168h; 500 kBq/kg IV, 0,75 mg/kg total protein. The procedure:
Female RJ: NRMI-Foxn1nu/nu mice were inoculated with 2 × 10^6 Huh-7 cells on the right flank. Animals were pre-treated with 200 µg/mouse unspecific IgG2a antibody 24 h prior to hot dosing.

Series [4] deals with T1, CEACAM5 (Homo sapiens, UniProt P06731).
T1 sequence (P06731 35-702): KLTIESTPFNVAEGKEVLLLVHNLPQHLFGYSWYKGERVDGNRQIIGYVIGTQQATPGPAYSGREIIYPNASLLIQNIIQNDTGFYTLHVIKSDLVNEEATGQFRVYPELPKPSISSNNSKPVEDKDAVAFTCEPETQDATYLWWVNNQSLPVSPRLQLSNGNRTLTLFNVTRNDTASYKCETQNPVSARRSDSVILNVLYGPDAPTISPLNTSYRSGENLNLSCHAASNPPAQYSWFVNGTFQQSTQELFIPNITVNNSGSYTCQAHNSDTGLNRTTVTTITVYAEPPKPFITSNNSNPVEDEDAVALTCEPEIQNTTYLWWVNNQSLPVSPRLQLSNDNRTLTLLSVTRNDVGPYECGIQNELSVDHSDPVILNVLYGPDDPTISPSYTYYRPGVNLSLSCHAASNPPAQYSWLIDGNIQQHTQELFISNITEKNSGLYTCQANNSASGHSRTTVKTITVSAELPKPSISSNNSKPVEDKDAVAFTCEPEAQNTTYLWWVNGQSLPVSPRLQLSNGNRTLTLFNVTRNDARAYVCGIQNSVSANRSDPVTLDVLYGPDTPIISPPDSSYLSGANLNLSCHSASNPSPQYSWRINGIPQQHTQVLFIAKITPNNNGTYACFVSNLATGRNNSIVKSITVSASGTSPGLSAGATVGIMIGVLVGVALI
In words: Immunoreactive fraction (IRF), binding to CEACAM5-coated beads. To be noted: 2 kBq/µg. As to the method:
Shortly after completion of the radiolabeling, the binding was assessed by measuring the fraction of radiolabeled antibody-chelator conjugate bound to relevant antigen coated magnetic beads (Thermo Fisher Scientific). In short, beads were placed in 2 mL Eppendorf tubes in 90 µL buffer (PBS/0.1% Tween 20/1% BSA). The radiolabeled compounds were diluted to 5 Bq/µL in buffer and 50 Bq were added to each bead-containing tube. The binding lasted for 60 min while shaking at 750 rpm at room temperature. After completion of the binding step, magnet (DynaMag-2) was used to separate the beads from […] supernatant. The radio activities in the supernatant and in the beads of each sample were measured using a high purity Germanium detector (Ortec). […] Total binding was defined as [(activity in beads […])/ (total activity)] × 100.
Shortly after completion of the radiolabeling, the binding of each sample to CEACAM5-coated M270-carboxy Dynabeads was determined.

Series [5] concerns C4-2, JIMT-1, T-47D, NCI-N87 and Calu-3. To be noted: 2 to 40 kBq/µg; 6 days; vs isotype control.
Protocol: In vitro cytotoxicity of Ac-225-ACC was determined in cell lines expressing different levels of relevant target receptors. Cells were seeded at an appropriate cell density in relevant cell media. One day after seeding, the radiolabeled compounds at the specific activity of 2-20 kBq/µg and radioactive concentration of 50-100 kBq/ml were titrated in parallel with a radiolabeled isotype control. Cells were incubated for 5-6 days. Cell viability was determined by cell counting using Hoechst and PI staining and analyzed on Operetta CLS High Content Analysis System (Perkin Elmer) or by ATP measurements using CellTiterGlo (Promega).
C4-2, JIMT-1, T-47D, NCI-N87 and Calu-3 were seeded at an appropriate cell density in the following cell media respectively: RPMI + 10% FBS + 1x MEM-NEAA + 1x HEPES + 1x Na Pyruvate; DMEM + 10% FBS; RPMI + 10% FBS + 10 µg/ml insulin; RPMI + 10% FBS; RPMI + 10% FBS. […] Cells were treated for 6 days and subsequentially cell viability was determined using CellTiterGlo (Promega).
A further series has as its system LK-2 lung cancer model. In words: In vivo antitumor efficacy in LK-2 model. Also noted: species or system mice. The source says: Female BALB/c nude mice were inoculated subcutaneously with 1×10^6 LK-2 cells. When tumors reached an average size of ~190mm^3, animals were randomized into treatment groups (n=12 per group) and treatment was started.
(**, P=0.0024. ****, […]) (Figure 28).

Series [6] has as its target T2, human glypican-3 (Homo sapiens, UniProt P51654). In words: ELISA, binding to recombinant human glypican-3. To be noted: compared to unconjugated Codrituzumab. The procedure: The relevant antigen was immobilized on ELISA plate by absorption. The plate was washed (PBS with 0.1% Tween 20) and incubated with blocking buffer (PBS + 3% BSA) for 2 h ± 1 h to reduce unspecific binding. Relevant antibodies and ACCs diluted in assay buffer (PBS with 0.05% Tween 20 + 1.5% BSA). The blocking buffer was discarded, and the antibodies and ACCs and controls were applied in triplicates to the plate according to a plate set-up defined in each protocol. After incubation for 1 h ± 30 min at RT, the plate was washed. A horse radish peroxidase (HRP)-conjugated secondary antibody binding specifically to the primary mAb (anti-human IgG-HRP) was added to the plate. After incubation for 1 hour ± 30 min at RT, the plate was washed. A chromogenic substrate (2,2'-azino-bis (3-ethylbenzothiazoline-6-sulphonic acid) (ABTS)), for HRP leading to the formation of a green color was added to the plate and used for detection. The absorbance of the colored reaction product was measured with an absorbance plate reader, e.g. EnVision 2103 Multilabel Reader from Perkin Elmer, or iMark Microplate Absorbance Reader from Bio-Rad.
Absorbance against the log of the antibody concentration was plotted on the GraphPad Prism software. […]
Background: In an ELISA, binding on a coated surface is turned into a signal by an enzyme label.

For series [7], the target named is T2, human glypican-3. Put plainly: Flow cytometry, cell surface binding on Hep3B2 cells. Also noted: Hep3B2 cells expressing human glypican-3; endogenous in cells; host or cells: Hep3B2. To be noted: compared to unconjugated Codrituzumab. The procedure: (§1) The in vitro binding properties of antibody-chelator conjugates were assessed in various relevant cell lines and compared to their corresponding unconjugated antibody. Briefly, samples were diluted in buffer (PBS/3% FBS) and added to relevant cell lines. After completion of the binding step (60 min at 4°C), the cells were washed and incubated with secondary antibody conjugated with phycoerythrin to detect antibodies containing a human IgG Fc region. After 60 min at 4°C, the cells were washed, and fluorescence on the cells was determined by flow cytometry using Guava EasyCyte 8HT (Luminex).
Cell surface binding of Codrituzumab-macropa was compared to unconjugated Codrituzumab and was investigated by flow cytometry using Hep3B2 cells expressing human glypican-3 (Figure 11).

The target of the next series is T3, human FolRa (Homo sapiens, UniProt P15328).
T3 construct: OUMS-23 and T-47D cells expressing human FolRa; endogenous in cells; host or cells: OUMS-23, T-47D
In words: Flow cytometry, cell surface binding on OUMS-23 and T-47D cells. To be noted: compared to the unconjugated antibody. As to the method: as §1
Cell surface binding of Farletuzumab-macropa and Farletuzumab-DOTA was compared to unconjugated Farletuzumab and investigated by flow cytometry using OUMS-23 and T-47D cells expressing human FolRa (Figure 43).
Cell surface binding of Mirvetuximab-macropa and Mirvetuximab-DOTA was compared to unconjugated Mirvetuximab and investigated by flow cytometry using OUMS-23 and T-47D cells expressing human FolRa (Figure 47).
Background: Flow cytometry measures light scatter and fluorescence of single cells or particles in a stream.

Another series deals with GUCY2C (Homo sapiens, UniProt P25092). In words: Flow cytometry, cell surface binding on CHO-GUCY2C cells. Also noted: expressed in transfected cells; host or cells: CHO. To be noted: compared to unconjugated Indusatumab. The procedure: as §1
Cell surface binding of Indusatumab-macropa was compared to unconjugated Indusatumab and investigated by flow cytometry using CHO-GUCY2C cells expressing human GUCY2C (Figure 31).

For series [8], the target named is T1, CEACAM5. In words: Flow cytometry, cell surface binding on MKN-45 and HT-55 cells. Also noted: MKN-45 and HT-55 cells expressing human CEACAM5; endogenous in cells; host or cells: MKN-45, HT-55. To be noted: compared to unconjugated Labetuzumab. As to the method: as §1
Cell surface binding of Labetuzumab-macropa was compared to unconjugated Labetuzumab and investigated by flow cytometry using MKN-45 and HT-55 cells expressing human CEACAM5 (Figure 19).

Series [9] in a line: Chelation of bismuth-213 by iTLC after Ac-225 labelling. The format is physicochemical. To be noted: measured immediately and on Day 1 and Day 2 at room temperature. The procedure:
In brief, an iTLC paper impregnated with a silica gel plate was cut to obtain 11 cm × 1 cm strips. Application point (1 cm), cut point (4 cm) and end of run point (10 cm) was marked and 2 µl of TAC was applied on to iTLC strips. The strips were developed in 3 mL mobile phase (0.1 M Citrate in 0.9%(v/v) NaCl pH 5.5) in LSC vials. […] When the liquid front had reached the marked end point, the strips were removed from the vials and placed on an aluminum foil to dry. The strips were cut in two at 4 cm: the shorter "application" half (A) and the longer "front" half (F). Each part was carefully folded and placed at the bottom of scintillation vials. […] The radiochemical purity (% RCP) of the samples (defined as [(radioactivity of application section)/(total radioactivity on strip)] × 100) was calculated. Table 2: Radiochemical purity (% RCP) of samples included in this invention.
Pelgi-macropa labeling was performed for 60 min at room temperature the two DOTA compounds were labeled at 60°C for 60 min. The percentage chelation of Bi-213 was determined using iTLC and measured on the Germanium Detector using the specific energy of Bi-213. After initial radiolabelling, compounds were measured immediately and on Day 1 and Day 2 after incubation at room temperature. […]

The target of a further series is T4, human TROP2 (Homo sapiens, UniProt P09758).
T4 construct: JIMT-1, MCF-7, T-47D and ZR-75-1 cells expressing human TROP2; endogenous in cells; host or cells: JIMT-1, MCF-7, T-47D, ZR-75-1
T4 sequence (P09758 27-323): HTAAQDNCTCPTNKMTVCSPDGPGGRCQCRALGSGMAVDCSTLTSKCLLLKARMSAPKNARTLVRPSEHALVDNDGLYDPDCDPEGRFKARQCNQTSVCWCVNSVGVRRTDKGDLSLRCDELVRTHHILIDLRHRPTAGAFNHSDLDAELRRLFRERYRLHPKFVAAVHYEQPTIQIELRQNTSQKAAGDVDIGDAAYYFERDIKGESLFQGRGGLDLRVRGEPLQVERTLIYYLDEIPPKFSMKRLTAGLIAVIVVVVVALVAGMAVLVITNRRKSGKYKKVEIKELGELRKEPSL
Put plainly: Flow cytometry, cell surface binding on JIMT-1, MCF-7, T-47D and ZR-75-1 cells. To be noted: compared to unconjugated Sacituzumab. The procedure: as §1

T3 sequence (P15328 25-257): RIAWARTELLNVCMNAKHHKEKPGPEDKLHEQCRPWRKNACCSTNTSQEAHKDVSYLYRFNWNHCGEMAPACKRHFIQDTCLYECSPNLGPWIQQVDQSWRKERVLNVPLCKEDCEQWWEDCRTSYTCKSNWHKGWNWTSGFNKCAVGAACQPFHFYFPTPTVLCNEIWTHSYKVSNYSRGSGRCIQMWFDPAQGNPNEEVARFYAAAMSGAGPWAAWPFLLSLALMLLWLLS

As for “Ac-225-macropa-Codrituzumab: Ac-225 macropa complex bound to the anti-GPC3 monoclonal antibody Codrituzumab”, the anti-tumor activity result in series [1] (500 kBq/kg single dose IV, repeat dose 250 kBq/kg on day 25, compared to isotype control) is reported as “significantly higher anti-tumor activity”. Moreover, the body weight loss result in [1] (during the course of the study) was “No body weight loss”. In addition, the cytotoxicity result in [2] is “strong and specific cytotoxicity”. Further, the tumor uptake entry in series [3] is listed as “significantly higher tumor uptake at 168h compared to Ac-225-macropa-isotype-control”.
Regarding Ac-225-macropa-Labetuzumab, the values for the IRF in the series with CEACAM5 [4] (33 µg beads), with CEACAM5 [4] (100 µg beads) and with CEACAM5 [4] (333 µg beads) were 43%, 88% and 97%, respectively.
As for “Ac-225-macropa-Sacituzumab: Ac-225 macropa complex bound to the anti-TROP2 monoclonal antibody Sacituzumab”, the cytotoxicity entry in series [5] was “strong and specific cytotoxicity”. Also, the tumor growth inhibition entry in the series with LK-2 lung cancer model (100 or 200 kBq/kg, i.v., single dose day 0) is reported as “strong tumor growth inhibition at both doses tested”. The “Antitumor activity compared to Trodelvy” value in the series on LK-2 lung cancer model (Trodelvy 20 mg/kg i.v. day 0,7,14) was “significantly improved as compared to Trodelvy”.
As to Codrituzumab-DOTA, in the series with human glypican-3 [6], the EC50 entry is given as “higher EC50 than unconjugated Codrituzumab”.
For the substance Codrituzumab-macropa, the EC50 entry in the series with human glypican-3 [7] was “comparable EC50 as unconjugated Codrituzumab”.
Regarding Farletuzumab-DOTA [reference compound], the EC50 entry with human FolRa is “higher EC50 than unconjugated Farletuzumab in both cell lines”.
Same read-out and setting: as for Farletuzumab-macropa, the entry is “comparable EC50 in both cell lines as unconjugated Farletuzumab”.
Indusatumab-macropa: the EC50 entry with GUCY2C is on record as “comparable EC50 as unconjugated Indusatumab”.
Consider Labetuzumab-macropa, for which the EC50 result in the series with CEACAM5 [8] is listed as “comparable EC50 as unconjugated Labetuzumab”.
As to Mirvetuximab-DOTA [reference compound], in the series with human FolRa, the EC50 result is “higher EC50 than unconjugated Mirvetuximab in OUMS-23 cells”.
Consider Mirvetuximab-macropa, for which the EC50 entry in the series with human FolRa is listed as “comparable EC50 in both cell lines as unconjugated Mirvetuximab”.
As for “Pelgi-macropa: actinium-225 complexed to a macropa chelator covalently linked to the fully human PSMA-targeting antibody pelgifatamab (CAR 0.8)”, in series [9], the “chelation of Bismuth-213” value is listed as “chelated by macropa”.
In the case of Sacituzumab-macropa, the EC50 result with human TROP2 was “comparable EC50 as unconjugated Sacituzumab”.
For the substance “pelgifatamab-DOTA: pelgifatamab-DOTA (CAR 12.7) labeled with Actinium-225”, the “chelation of Bismuth-213” value in series [9] is “not chelated to the same extent with DOTA”.
